Laboratory results as given in patent US20090081786A1, “Peptide sequences for modulation of protein kinase C” (priority 2006, published 2009).

T1: annexin V (Homo sapiens, UniProt P08758)
T1 sequence (P08758 1-320): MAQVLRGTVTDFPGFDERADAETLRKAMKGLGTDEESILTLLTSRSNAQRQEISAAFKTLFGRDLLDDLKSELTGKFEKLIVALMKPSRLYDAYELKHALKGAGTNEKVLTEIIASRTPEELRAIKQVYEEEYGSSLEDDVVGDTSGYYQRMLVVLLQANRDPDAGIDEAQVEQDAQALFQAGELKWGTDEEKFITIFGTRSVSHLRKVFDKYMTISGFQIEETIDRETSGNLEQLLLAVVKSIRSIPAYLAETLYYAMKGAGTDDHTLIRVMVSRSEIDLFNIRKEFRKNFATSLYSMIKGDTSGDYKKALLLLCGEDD


Molecular target: T1, annexin V
Test: overlay binding assay on immobilized annexin V
Conditions: immobilized annexin V on nitrocellulose, overlay 37° C. 30 min, Western blotting
Method: A binding assay was performed in vitro, using an immobilized annexin V with the δ-PKC, δ-V1 (SEQ ID NO:18) (the C2 domain of δ-PKC), δ-V5 (SEQ ID NO:19), and ε-V1 (SEQ ID NO:20) peptides. These domains are recognized in the art as participating in protein-protein interactions.
10 μg of the annexin V was separated on 12% SDS-PAGE gel and transferred to nitrocellulose, and then cut into strips. The strips were incubated with blocking buffer (50 mM Tris pH 7.5, 200 mM NaCl, 3% bovine serum albumin, 0.1% PEG20). The strips were then incubated in overlay buffer (50 mM Tris pH 7.5, 200 mM NaCl, 1% PEG20, 12 mM β-mercaptoethanol) in the presence where appropriate of 30 μg crude bacterial cell lysate containing fusion proteins of myelin basic protein (MBP)-delta V1 PKC (MBP-δV1), glutathione-S-transferase-delta V5 PKC (GST-δV5), and full length sequences of δ-PKC or rat purified ε-PKC (SEQ ID NO:21) at 37° C. for 30 min. The strips where then washed with wash buffer (50 mM Tris pH 7.5, 200 mM NaCl, 0.1% PEG20, 12 mM β-mercaptoethanol), and then incubated with fixative (0.2% formaldehyde in PBS) and neutralizing solution (0.2M glycine in PBS) at room temperature 20 min each. After washing with buffer, the strips were probed with antibodies according to the overlay protein, and resulting bands were visualized using ECL Western blotting.

binding to annexin V	Molecule
bind to the annexin V	δ-V1: V1/C2 domain of δ-PKC (SEQ ID NO:18), used as myelin basic protein fusion (protein, left off: large carriers) MAPFLRISFNSYELGSLQAEDDASQPFCAVKMKEALTTDRGKTLVQKKPTMYPEWKSTFDAHIYEGRVIQIVLMRAAEDPMSEVTVGVSVLAERCKKNNGKAEFWLDLQPQAKVLMCVQYFLEDGDCKQSMRSEEEAMFPTMNRRGAIKQAKIHYIKNHE
did not bind to the annexin V	ε-V1: V1 region of ε-PKC (SEQ ID NO:20) (protein, listed as Homo sapiens) MVVFNGLLKIKICEAVSLKPTAWSLRHAVGPRPQTFLLDPYIALNVDDSRIGQTATKQKTNSPAWHDEFVTDVCNGRKIELAVFHDAPIGYDDFVANCTIQFEELLQNGSRHFEDWIDLEPEGKVYVIIDLSGSSGEAPKDNEE
bind to the annexin V	δ-PKC: full length δ-protein kinase C (SEQ ID NO:16) (protein, listed as Homo sapiens) MAPFLRISFNSYELGSLQVEDEASQPFCAVKMKEALSTERGKTLVQKKPTMYPEWKTTFDAHIYEGRVIQIVLMRAAEDPVSEVTVGVSVLAERCKKNNGKAEFWLDLQPQAKVLMCVQYFLEDGDCKQSMRSEEEAKFPTMNRRGAIKQAKIHYIKNHEFIATFFGQPTFCSVCKEFVWGLNKQGYKCRQCNAAIHKKCIDKIIGRCTGTATNSRDTIFQKERFNIDMPHRFKVYNYMSPTFCDHCGSLLWGLVKQGLKCEDCGMNVHHKCREKVANLCGINQKLLAEALNQVTQRSSRKLDTTESVGIYQGFEKKPEVSGSDILDNNGTYGKIWEGSTRCTLENFTFQKVLGKGSFGKVLLAELKGKDKYFAIKCLKKDVVLIDDDVECTMVEKRVLALAWESPFLTHLICTFQTKDHLFFVMEFLNGGDLMFHIQDKGRFELYRATFYAAEIICGLQFLHSKGIIYRDLKLDNVMLDRDGHIKIADFGMCKENIFGEGRASTFCGTPDYIAPEILQGLKYSFSVDWWSFGVLLYEMLIGQSPFHGDDEDELFESIRVDTPHYPRWITKESKDIMEKLFERDPDKRLGVTGNIRIHPFFKTINWSLLEKRKVEPPFKPKVKSPSDYSNFDPEFLNEKPQLSFSDKNLIDSMDQEAFHGFSFVNPKFEQFLDI
